Assays:
[1] = target: thrombin (Homo sapiens, UniProt P00734); experiment: Incubation without serine protease in phosphate buffer, then thrombin inhibition test; format: in vitro ADME; design: Brown and cyan colors represent heavy and light chain of thrombin respectively; details: pH 7.4
Description: Recombinant protein (10 μM) was incubated with or without serine protease 1 μM (thrombin, plasmin, trypsin or factor Xa) in phosphate buffer 50 mM containing NaCl 150 mM and 0.1% of PEG 6000, pH 7.4 for 4, 6, 7 or 18 h at 37° C. Reaction mixtures (20 μl) were split by SDS-PAGE. (A) hydrolysis SDS-PAGE (15%) of recombinant protein by serine proteases following 6 h of incubation. (B) Percentage of thrombin inhibition by recombinant protein following 6 h of incubation with serine protease (see experimental procedures). (C) hydrolysis SDS-PAGE (15%) of recombinant protein by serine proteases following 18 h of incubation. (D) Percentage of thrombin inhibition by recombinant protein following 18 h of incubation with serine protease (see experimental procedures). Numbering of (B) and (D) corresponds to numbering of (A) and (C), respectively, and recombinant protein control is represented by CTRL. […]
(§1) Afterwards, it was determined whether serine proteases, like thrombin, plasmin, factor Xa and trypsin, hydrolyze recombinant protein. […] Upon addition of chromogenic substrate S-2238, the hydrolysis thereof by thrombin was monitored in spectrophotometer way. […]

[2] = test system: isolated human plasma; experiment: Prothrombin time (PT) in isolated human plasma; format: biochemical; details: plasma of healthy human volunteers, incubation 3 min. at 37° C.
Description: (§2) Plasma was obtained from blood of healthy human volunteer and incubated with different concentrations of recombinant protein. APTT, PT and TT were determined like experimental procedure. (A) Activated partial thromboplastin time (B) prothrombin time and (C) thrombin time. Ctrl is related to plasma and Sal is related to plasma plus saline.
(§3) Finally, PT, aPTT and TT were assessed in isolated plasma of healthy human volunteers following incubation with recombinant protein for 3 min. at 37° C. […] Maximum test reading for aPTT was achieved following 12 nM, while for PT that was achieved following 6 nM of recombinant protein (FIGS. 11A and 11B).

[3] = target: T1, trypsin (Bos taurus, UniProt P00760); experiment: Degradation of recombinant protein by trypsin (SDS-PAGE and residual thrombin inhibition); format: in vitro ADME
T1 construct: gene PRSS1
T1 sequence (P00760 24-246): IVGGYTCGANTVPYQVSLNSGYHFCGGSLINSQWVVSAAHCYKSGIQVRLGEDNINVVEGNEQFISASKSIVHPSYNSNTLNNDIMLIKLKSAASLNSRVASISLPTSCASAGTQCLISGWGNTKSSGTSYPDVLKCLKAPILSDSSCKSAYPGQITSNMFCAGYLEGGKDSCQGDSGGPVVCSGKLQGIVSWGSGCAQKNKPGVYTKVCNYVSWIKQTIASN
Description: Recombinant protein (10 μM) was incubated with or without serine protease 1 μM (thrombin, plasmin, trypsin or factor Xa) in phosphate buffer 50 mM containing NaCl 150 mM and 0.1% of PEG 6000, pH 7.4 for 4, 6, 7 or 18 h at 37° C. Reaction mixtures (20 μl) were split by SDS-PAGE. (A) hydrolysis SDS-PAGE (15%) of recombinant protein by serine proteases following 6 h of incubation. (B) Percentage of thrombin inhibition by recombinant protein following 6 h of incubation with serine protease (see experimental procedures). (C) hydrolysis SDS-PAGE (15%) of recombinant protein by serine proteases following 18 h of incubation. (D) Percentage of thrombin inhibition by recombinant protein following 18 h of incubation with serine protease (see experimental procedures). Numbering of (B) and (D) corresponds to numbering of (A) and (C), respectively, and recombinant protein control is represented by CTRL. Recombinant protein (strip 1); thrombin (strip 2) and thrombin with recombinant protein (strip 3); plasmin (strip 4) and plasmin with recombinant protein (strip 5); trypsin (strip 6) and trypsin with recombinant protein (strip 7); factor Xa (strip 8) and factor Xa with recombinant protein (strip 9) and protein marker (strip 10; in A). (E) Identification of cleavage sites of thrombin in recombinant protein following 7 h of incubation. (F) Identification of cleavage sites of factor Xa in recombinant protein following 4 h of incubation. Cleavage sites of thrombin and factor Xa in recombinant protein sequence are shown in FIGS. S1 and S2, respectively. Experimental procedure for (C), (D), (E) and (F) was the same as for (A) and (B), except the incubation time and the type of serine protease used. FIG. 5 discloses “GKPQG” as SEQ ID NO: 18, “MPKGG” as SEQ ID NO: 19, and “SDAVH” as SEQ ID NO: 20.
as §1

[4] = test system: isolated human plasma; experiment: Activated partial thromboplastin time (aPTT) in isolated human plasma; format: biochemical; details: plasma of healthy human volunteers, incubation 3 min. at 37° C.
Description: as §2, §3

[5] = target: T2, factor Xa (Homo sapiens, UniProt P00742); experiment: Serine protease inhibition test, factor Xa (chromogenic substrate); format: biochemical; details: recombinant protein 1, 100, 200 nM; protease 100 pM; 6 h at 37° C.
T2 construct: Serine protease (100 pM; thrombin, plasmin, trypsin or factor Xa) was incubated with recombinant protein; For factor Xa activity, buffer contained phosphatidylserine and phosphatidylcholine 50 μM
T2 sequence (P00742 235-488 limits assumed): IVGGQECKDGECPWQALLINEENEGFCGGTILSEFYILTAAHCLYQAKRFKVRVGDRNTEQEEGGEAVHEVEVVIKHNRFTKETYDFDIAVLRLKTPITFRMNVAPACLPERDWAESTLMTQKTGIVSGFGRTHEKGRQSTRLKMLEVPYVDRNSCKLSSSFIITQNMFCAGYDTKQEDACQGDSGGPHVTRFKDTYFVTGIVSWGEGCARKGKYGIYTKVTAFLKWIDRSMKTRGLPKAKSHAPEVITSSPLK
T2 sequence (P00742 41-179 limits assumed): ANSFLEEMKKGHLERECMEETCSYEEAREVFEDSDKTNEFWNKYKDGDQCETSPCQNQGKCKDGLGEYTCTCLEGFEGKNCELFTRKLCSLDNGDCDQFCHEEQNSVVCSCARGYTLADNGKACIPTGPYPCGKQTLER
Description: (A) Inhibition of serine proteases through recombinant protein. Serine protease (100 pM; thrombin, plasmin, trypsin or factor Xa) was incubated with recombinant protein (1, 100 and 200 nM) in phosphate buffer 50 mM containing NaCl 150 mM and 0.1% of PEG 6000, pH 7.4 for 6 h at 37° C. Following addition of chromogenic substrate corresponding to reaction mixture, hydrolysis thereof was monitored at 405 nm. For factor Xa activity, buffer contained phosphatidylserine and phosphatidylcholine 50 μM. […] (B) Typical curves for hydrolysis of chromogenic substrate S-2238 (15 μM) by thrombin 0.1 nM in absence (trace a) or presence of recombinant protein (trace b, 15 pM; trace c, 30 pM; trace d, 60 pM and trace e, 100 pM) in phosphate buffer 50 mM containing NaCl 150 mM and 0.1% of PEG 6000, pH 7.4 at 37° C. (C) Residual activity of thrombin in presence of increasing concentration of recombinant protein. (D) Dose-response curves for thrombin inhibition by recombinant protein. Percentage of thrombin inhibition was plotted versus the concentration record of recombinant protein. Experimental condition of (C) and (D) is the same as in (B).
The first performed experiment was the test of serine proteases inhibition through recombinant protein. […] Hydrolysis of a chromogenic substrate through serine proteases in the presence and absence of recombinant protein was monitored in a spectrophotometer way. […]

B1: GKPQGHPHDALEARSDAVHTAVPKMPKGGHGGFEPIPIDYDERALEARSDAVHTAVPKMPKGGLGGFEPIPIDYDERALEARSDAVHTAVPKMPKGGHGGFEPIPIDYDERALEARSDAVHTAVPKMPKGGHGGFEPIPIDYDERALHALEHHHHHH (protein)
chain: GKPQGHPHDALEARSDAVHTAVPKMPKGGHGGFEPIPIDYDERALEARSDAVHTAVPKMPKGGLGGFEPIPIDYDERALEARSDAVHTAVPKMPKGGHGGFEPIPIDYDERALEARSDAVHTAVPKMPKGGHGGFEPIPIDYDERALHALEHHHHHH
modifications: Sculptin recombinat protein
notes: recombinant His-tagged protein modified from tick sculptin, expressed in E. coli
With B1 the “thrombin inhibition after incubation without serine protease” value ([1]; 6 h at 37° C., control is 100 pM of fresh recombinant protein) was “inhibited thrombin in similar way to control”, the “thrombin inhibition after incubation without serine protease” value ([1]; 18 h at 37° C., control of fresh recombinant protein) was “inhibited thrombin in similar way to control” and the PT [2] was “prolonged by recombinant protein in concentration-dependent way”. The “concentration at which maximum test reading for PT was achieved” value [2] was 6 nM, the “SDS-PAGE strip of 20-kDa (non-digested recombinant protein)” value ([3]; 10 μM protein with 1 μM trypsin, 6 h at 37° C.) was “completely disappeared” and the “SDS-PAGE strip of 20-kDa (recombinant protein monomer)” value ([3]; 10 μM protein with 1 μM trypsin, 18 h at 37° C.) was “completely disappeared”. The “thrombin inhibition after incubation” value ([3]; after 18 h incubation with trypsin, diluted to 100 pM) was “did not inhibit thrombin”, the aPTT [4] was “prolonged by recombinant protein in concentration-dependent way” and the “concentration at which maximum test reading for aPTT was achieved” value [4] was 12 nM. The “inhibition of factor Xa” value [5] was “did not inhibit”.

From patent US12187785B2, “Recombinant protein and fragments thereof, method for producing said recombinant protein, synthetic gene and use of sculptin or recombinant protein for preparing a medicament or pharmaceutical composition for the prophylaxis and/or treatment of thromboembolic diseases or as a direct and specific …” (priority 2017, dated 2025)
